These results are taken from article PMC5303882, “Structure of the homodimeric androgen receptor ligand-binding domain” (Nature Communications, 2017).

In this assay the target is T1, Recombinant human androgen receptor ligand-binding domain (AR-LBD, residues 662-919), DHT-bound (human, UniProt P10275 662-919).
T1 construct: also called AR/NR3C4 LBD; liganded AR-LBD; source: recombinant, expressed as a fusion protein with thioredoxin, purified to homogeneity
In words: SPR; BIAcore T200, 25 °C; DHT-bound AR-LBD amine-coupled to a CM5 chip at about 6,800 RU, UBA3 peptide as analyte; 50 mM HEPES pH 7.2, 50 mM Li2SO4, 5% glycerol, 1 mM DTT, 5 mM DHT; 1:1 Langmuir model; triplicate. The conditions noted are these: both partners purified. Background: Surface plasmon resonance follows binding to a sensor surface in real time, without labels.

B1: Synthetic UBA3 peptide S59-V72 (LxxLL motif) (peptide)
peptide: STESLQFLLDTCKV
notes: also called UBA3-derived peptide; UBA3 59S-72V peptide; source: synthetic peptide, custom-synthesized at Pepmic
Broadly, the Kd is a measure of binding affinity in units of concentration. Turning to B1, the Kd was found to be 30.6 ± 0.7 nM.
